# Results: paper PMC12167799, “The role of human Shu complex in ATP-dependent regulation of RAD51 filaments during homologous recombination–associated DNA damage response”
# T1: SWSAP1 (hSWS1-SWSAP1, WT);hSWS1 (Homo sapiens;Homo sapiens, UniProt Q6NVH7;Q19AV6 22-250;1-140, |)
# T1 sequence 1: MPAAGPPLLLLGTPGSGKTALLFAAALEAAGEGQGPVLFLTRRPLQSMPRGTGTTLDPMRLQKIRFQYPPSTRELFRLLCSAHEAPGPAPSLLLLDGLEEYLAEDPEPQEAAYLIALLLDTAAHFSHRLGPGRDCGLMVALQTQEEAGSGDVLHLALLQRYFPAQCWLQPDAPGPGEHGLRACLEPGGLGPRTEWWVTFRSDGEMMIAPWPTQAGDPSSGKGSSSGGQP
# T1 sequence 2: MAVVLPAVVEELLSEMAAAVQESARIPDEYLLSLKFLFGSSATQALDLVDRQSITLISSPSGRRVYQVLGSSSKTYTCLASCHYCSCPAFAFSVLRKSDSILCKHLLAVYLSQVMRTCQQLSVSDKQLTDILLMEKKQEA
# T2: SWSAP1 D96A (Walker B);hSWS1 (Homo sapiens;Homo sapiens, UniProt Q6NVH7;Q19AV6 22-250;1-140, D117A|)
# T2 sequence 1: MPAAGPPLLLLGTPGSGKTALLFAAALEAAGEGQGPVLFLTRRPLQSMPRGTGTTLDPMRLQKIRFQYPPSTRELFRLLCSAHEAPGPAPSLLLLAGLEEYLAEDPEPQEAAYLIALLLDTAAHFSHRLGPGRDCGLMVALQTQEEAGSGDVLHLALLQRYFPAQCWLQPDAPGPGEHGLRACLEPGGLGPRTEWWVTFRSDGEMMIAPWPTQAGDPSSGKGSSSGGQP
# T2 sequence 2: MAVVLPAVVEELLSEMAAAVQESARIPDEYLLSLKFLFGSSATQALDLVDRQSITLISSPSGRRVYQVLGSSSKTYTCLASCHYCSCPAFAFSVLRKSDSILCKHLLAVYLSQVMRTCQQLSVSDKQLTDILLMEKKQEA
# T3: SWSAP1 K18A (Walker A);hSWS1 (Homo sapiens;Homo sapiens, UniProt Q6NVH7;Q19AV6 22-250;1-140, K39A|)
# T3 sequence 1: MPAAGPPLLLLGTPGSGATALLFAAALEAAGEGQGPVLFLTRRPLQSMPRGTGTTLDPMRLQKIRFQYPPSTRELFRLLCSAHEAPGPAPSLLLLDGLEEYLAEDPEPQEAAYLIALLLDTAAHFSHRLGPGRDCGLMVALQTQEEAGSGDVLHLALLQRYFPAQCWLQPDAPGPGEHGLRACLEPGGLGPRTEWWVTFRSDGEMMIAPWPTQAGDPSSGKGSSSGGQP
# T3 sequence 2: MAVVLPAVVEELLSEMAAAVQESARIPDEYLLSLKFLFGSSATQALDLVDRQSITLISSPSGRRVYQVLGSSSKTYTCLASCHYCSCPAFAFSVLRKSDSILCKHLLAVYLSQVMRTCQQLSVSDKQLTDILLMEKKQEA
# Columns and labels:
# [1] = target: T1, SWSAP1 (hSWS1-SWSAP1, WT);hSWS1; experiment: fluorescence polarization; no nucleotide; FPA: 5 nM 6-FAM DNA, 37 C, 2 mM nucleotide where stated (buffer not given in material); EMSA: 0.05 uM 6-FAM DNA, 5%/15% native PAGE; RAD51 filaments: 2 mM ATP; conditions: protein: recombinant;recombinant, tags: N-terminal 6xHis-TEV, cleaved;none, copies: 1;1
# [2] = target: T1, SWSAP1 (hSWS1-SWSAP1, WT);hSWS1; experiment: fluorescence polarization; 2 mM ADP; FPA: 5 nM 6-FAM DNA, 37 C, 2 mM nucleotide where stated (buffer not given in material); EMSA: 0.05 uM 6-FAM DNA, 5%/15% native PAGE; RAD51 filaments: 2 mM ATP; conditions: protein: recombinant;recombinant, tags: N-terminal 6xHis-TEV, cleaved;none, copies: 1;1
# [3] = target: T2, SWSAP1 D96A (Walker B);hSWS1; experiment: as above; conditions: protein: recombinant;recombinant, tags: N-terminal 6xHis-TEV, cleaved;none, copies: 1;1
# [4] = target: T3, SWSAP1 K18A (Walker A);hSWS1; experiment: as above; conditions: protein: recombinant;recombinant, tags: N-terminal 6xHis-TEV, cleaved;none, copies: 1;1
# [5] = target: T2, SWSAP1 D96A (Walker B);hSWS1; experiment: fluorescence polarization; no nucleotide; FPA: 5 nM 6-FAM DNA, 37 C, 2 mM nucleotide where stated (buffer not given in material); EMSA: 0.05 uM 6-FAM DNA, 5%/15% native PAGE; RAD51 filaments: 2 mM ATP; conditions: protein: recombinant;recombinant, tags: N-terminal 6xHis-TEV, cleaved;none, copies: 1;1
# [6] = target: T3, SWSAP1 K18A (Walker A);hSWS1; experiment: as above; conditions: protein: recombinant;recombinant, tags: N-terminal 6xHis-TEV, cleaved;none, copies: 1;1
# [7] = target: T1, SWSAP1 (hSWS1-SWSAP1, WT);hSWS1; experiment: fluorescence polarization; 2 mM ATP; FPA: 5 nM 6-FAM DNA, 37 C, 2 mM nucleotide where stated (buffer not given in material); EMSA: 0.05 uM 6-FAM DNA, 5%/15% native PAGE; RAD51 filaments: 2 mM ATP; conditions: protein: recombinant;recombinant, tags: N-terminal 6xHis-TEV, cleaved;none, copies: 1;1
# [8] = target: T2, SWSAP1 D96A (Walker B);hSWS1; experiment: as above; conditions: protein: recombinant;recombinant, tags: N-terminal 6xHis-TEV, cleaved;none, copies: 1;1
# [9] = target: T3, SWSAP1 K18A (Walker A);hSWS1; experiment: as above; conditions: protein: recombinant;recombinant, tags: N-terminal 6xHis-TEV, cleaved;none, copies: 1;1
# RAD51 [10] = target: T4, RAD51 (Homo sapiens, UniProt Q06609 1-339); experiment: competition (fluorescence intensity); 2 mM ATP; 100x unlabeled dT39 lowers signal ~30%; FPA: 5 nM 6-FAM DNA, 37 C, 2 mM nucleotide where stated (buffer not given in material); EMSA: 0.05 uM 6-FAM DNA, 5%/15% native PAGE; RAD51 filaments: 2 mM ATP; conditions: protein: recombinant, tags: none, chain copies: 10
# [11] = target: RAD51;SWSAP1 D96A (Walker B);hSWS1 (Homo sapiens;Homo sapiens;Homo sapiens, UniProt Q06609;Q6NVH7;Q19AV6 1-339;22-250;1-140, |D117A|); experiment: competition (fluorescence intensity); 2 mM ATP; D96A stabilizes 5' end like WT; FPA: 5 nM 6-FAM DNA, 37 C, 2 mM nucleotide where stated (buffer not given in material); EMSA: 0.05 uM 6-FAM DNA, 5%/15% native PAGE; RAD51 filaments: 2 mM ATP; conditions: protein: recombinant;recombinant;recombinant; tags: none;N-terminal 6xHis-TEV, cleaved;none; label: 5' 6-FAM
# [12] = target: T5, RAD51;SWSAP1 (hSWS1-SWSAP1, WT);hSWS1 (Homo sapiens;Homo sapiens;Homo sapiens, UniProt Q06609;Q6NVH7;Q19AV6 1-339;22-250;1-140, ||); experiment: competition (fluorescence intensity); 2 mM ATP; Shu inhibits exchange at 5' end; FPA: 5 nM 6-FAM DNA, 37 C, 2 mM nucleotide where stated (buffer not given in material); EMSA: 0.05 uM 6-FAM DNA, 5%/15% native PAGE; RAD51 filaments: 2 mM ATP; conditions: protein: recombinant;recombinant;recombinant; tags: none;N-terminal 6xHis-TEV, cleaved;none; label: 5' 6-FAM
# [13] = target: T5, RAD51;SWSAP1 (hSWS1-SWSAP1, WT);hSWS1; experiment: DNase I protection; 2 mM ATP; Shu increases digestion of filament; FPA: 5 nM 6-FAM DNA, 37 C, 2 mM nucleotide where stated (buffer not given in material); EMSA: 0.05 uM 6-FAM DNA, 5%/15% native PAGE; RAD51 filaments: 2 mM ATP; conditions: protein: recombinant;recombinant;recombinant, tags: none;N-terminal 6xHis-TEV, cleaved;none
# RAD51 [14] = target: T4, RAD51; experiment: DNase I protection; 2 mM ATP; FPA: 5 nM 6-FAM DNA, 37 C, 2 mM nucleotide where stated (buffer not given in material); EMSA: 0.05 uM 6-FAM DNA, 5%/15% native PAGE; RAD51 filaments: 2 mM ATP; conditions: protein: recombinant, tags: none, chain copies: 10
# [15] = label: 3' 6-FAM on strand 1, blunt
# [16] = label: 3' 6-FAM on strand 1, fork 1:2, 19 bp duplex, 20 nt arms
# [17] = label: 3' 6-FAM on strand 1, 5' overhang 20 nt
# [18] = label: 5' 6-FAM on strand 1, blunt
# [19] = label: 3' 6-FAM on strand 1, 3' overhang 20 nt
# T4 sequence (Q06609 whole entry): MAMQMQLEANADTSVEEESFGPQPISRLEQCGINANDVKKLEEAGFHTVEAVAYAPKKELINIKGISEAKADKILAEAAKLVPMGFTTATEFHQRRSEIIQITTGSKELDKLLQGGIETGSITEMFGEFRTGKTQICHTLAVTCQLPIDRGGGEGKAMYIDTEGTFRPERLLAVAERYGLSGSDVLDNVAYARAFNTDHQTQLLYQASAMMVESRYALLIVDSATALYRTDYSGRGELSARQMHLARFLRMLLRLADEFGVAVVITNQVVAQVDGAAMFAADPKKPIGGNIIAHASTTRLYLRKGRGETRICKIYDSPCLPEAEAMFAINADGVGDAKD
# T5 sequence (Q06609 whole entry, one chain of several): as the sequence (Q06609 whole entry) above
# RAD51;SWSAP1 D96A (Walker B);hSWS1, sequence (Q06609 whole entry, stated change not applied, one chain of several): as the sequence (Q06609 whole entry) above
binder,measurement,setting,value
ACTGCCCTTACAGCACAGCGGTTTTTTTTTT (ssDNA) [ss31],Kd,[1]; label: 5' 6-FAM,5.7 ± 0.3 µM
ACTGCCCTTACAGCACAGCGGTTTTT (ssDNA) [ss26],Kd,[1]; label: 5' 6-FAM,9.9 ± 0.6 µM
TTTTTTTTTTTTTTTTTTTTCTTGACAAGCTTGCGCACT (ssDNA) [ss39],Kd,[2]; label: 3' 6-FAM,3.2 ± 0.2 µM
same,Kd,[3]; label: 3' 6-FAM,3.9 ± 0.3 µM
same,Kd,[4]; label: 3' 6-FAM,7.4 ± 0.2 µM
same,Kd,[1]; label: 3' 6-FAM,11.2 ± 0.4 µM
same,Kd,[5]; label: 3' 6-FAM,10.4 ± 0.7 µM
same,Kd,[6]; label: 3' 6-FAM,9.9 ± 0.4 µM
same,Kd,[7]; label: 3' 6-FAM,6.9 ± 0.7 µM
same,Kd,[8]; label: 3' 6-FAM,7.8 ± 0.4 µM
same,Kd,[9]; label: 3' 6-FAM,9.5 ± 0.7 µM
ds39 (dsDNA) DNA 1: TTTTTTTTTTTTTTTTTTTTCTTGACAAGCTTGCGCACT DNA 2: AGTGCGCAAGCTTGTCAAGAAAAAAAAAAAAAAAAAAAA,Kd,[4]; [15],8.73 ± 0.7 µM
same,Kd,[1]; [15],19.2 ± 0.9 µM
same,Kd,[5]; [15],13.6 ± 0.6 µM
same,Kd,[6]; [15],12.2 ± 1 µM
same,Kd,[9]; [15],10 ± 0.9 µM
Fork (dsDNA) DNA 1: TTTTTTTTTTTTTTTTTTTTCTTGACAAGCTTGCGCACT DNA 2: AGTGCGCAAGCTTGTCAAGGCACTTTTTTTTTTTTTTTT,Kd,[2]; [16],25.6 ± 0.7 µM
same,Kd,[3]; [16],33.9 ± 0.9 µM
same,Kd,[4]; [16],7 ± 0.8 µM
same,Kd,[1]; [16],7.7 ± 0.5 µM
same,Kd,[5]; [16],7.4 ± 0.4 µM
same,Kd,[6]; [16],4.6 ± 0.4 µM
same,Kd,[7]; [16],18.6 ± 0.7 µM
same,Kd,[8]; [16],22.4 ± 0.4 µM
same,Kd,[9]; [16],8.2 ± 0.4 µM
5'-overhang (dsDNA) DNA 1: TTTTTTTTTTTTTTTTTTTTCTTGACAAGCTTGCGCACT DNA 2: AGTGCGCAAGCTTGTCAAG,Kd,[2]; [17],8.9 ± 0.4 µM
same,Kd,[3]; [17],5.1 ± 0.2 µM
same,Kd,[4]; [17],3.4 ± 0.3 µM
same,Kd,[1]; [17],3.6 ± 0.2 µM
same,Kd,[5]; [17],3.8 ± 0.2 µM
same,Kd,[6]; [17],3.9 ± 0.3 µM
same,Kd,[7]; [17],3.6 ± 0.1 µM
same,Kd,[8]; [17],4.3 ± 0.4 µM
same,Kd,[9]; [17],3.9 ± 0.2 µM
ds26 (dsDNA) DNA 1: ACTGCCCTTACAGCACAGCGGTTTTT DNA 2: AAAAACCGCTGTGCTGTAAGGGCAGT,Kd,[1]; [18],18.8 ± 0.7 µM
ds21 (dsDNA) DNA 1: ACTTACAGCACAGCGGTTTTT DNA 2: AAAAACCGCTGTGCTGTAAGT,Kd,[1]; [18],43.7 ± 0.4 µM
TTTTTTTTTTTTTTTTTTTTTTTTTTTTTTTTTTTTTTT (ssDNA) [*5'-(T)39],binding result,RAD51 [10]; label: 5' 6-FAM,binds
same,binding result,[11],binds
same,binding result,[12],binds
TTTTTTTTTTTTTTTTTTTTTTTTTTTTTTTTTTTTTTT (ssDNA) [*3'-(T)39],binding result,RAD51 [10]; label: 3' 6-FAM,binds
3'-overhang (dsDNA) DNA 1: CTTGACAAGCTTGCGCACT DNA 2: AGTGCGCAAGCTTGTCAAGGCACTTTTTTTTTTTTTTTT,Kd,[4]; [19],8.7 ± 0.4 µM
same,Kd,[1]; [19],14.9 ± 0.7 µM
same,Kd,[5]; [19],11 ± 0.8 µM
same,Kd,[6]; [19],7.1 ± 0.2 µM
same,Kd,[9]; [19],7.3 ± 0.6 µM
ACTTACAGCACAGCGGTTTTT (ssDNA) [ss21],Kd,[1]; label: 5' 6-FAM,10.1 ± 0.9 µM
TTTTTTTTTTTTTTTTTTTTTTTTTTTTTT (ssDNA) [*3'-(T)30],binding result,[13]; label: 3' 6-FAM,binds
same,binding result,RAD51 [14]; label: 3' 6-FAM,binds
TTTTTTTTTTTTTTTTTTTTTTTTTTTTTT (ssDNA) [*5'-(T)30],binding result,[13]; label: 5' 6-FAM,binds
same,binding result,RAD51 [14]; label: 5' 6-FAM,binds
